Results from patent publication US11407840B2, “Antibodies to M(H)DM2/4 and their use in diagnosing and treating cancer” (NomoCan Pharmaceuticals LLC, priority 2017, dated 2022).

What was measured:
[1] = tested on: plasma membrane M(H)DM2/4; experiment: Plasma membrane M(H)DM2/4 after chemotherapeutic agents in vitro; format: cell-based; settings: data not shown
[2] = tested on: human pancreatic cancer MIA PaCa-2 cells; experiment: Cell-ELISA, intact cells; format: binding
Procedure: (§1) Cell-ELISA Methodology: 8,000-10,000 cells/well of a 96-well microplate were grown overnight. The next day, unbound cells were washed off with sterile 1× PBS. The cells in each well were fixed with freshly prepared 4% buffered paraformaldehyde (pH 7.2) for 1 hour followed by 3 washes with 1× PBS. The wells were then blocked with 5% BSA in PBS (100 ? /well) for 2 hours at room temperature. Microplate wells were then washed 5 times with 300 ? of ice cold 1× PBS. MAbs NMC-103, NMC-204 or NMC-303 at 1 μg/mL in 1% BSA/PBS were then incubated with various cancer or normal untransformed cells for 2 hours at room temperature. Wells were then washed with 300 ? of ice-cold 1× PBS for 5 times and corresponding secondary antibody HRP-GaM F(ab′)2 diluted 1:2500 or 1:5000 in PBS with 1% BSA were added at 100 ? /well for 1 hour at room temperature followed by washing 5 times with 300 ? of ice-cold 1× PBS. TMB Substrate Solution (1-StepTM Ultra TMB-ELISA, ThermoFisher, Cat. No. 34028) was then added at 50 ? ? to each microplate well and incubated at room temperature for 30 minutes. The reaction was stopped by addition of 50 μL, of stop solution (ThermoFisher, Cat. No. SSO4) to each well and absorbance of each well was measured at OD450 nm. The absorbance value of each experimental well was corrected for the absorbance value obtained from wells treated with isotype-identical mAbs included in each experiment. The results are thus expressed as “relative binding”.

[3] = tested on: human, murine, rabbit protein; design: key: H—binds to human protein; M—binds to murine protein; R—binds to rabbit protein; settings: Table 10; cited from earlier work
[4] = target: NMC-P3 peptide (SEQ ID NO:3), amino acids 475-491 of HDM2 (Homo sapiens, UniProt Q00987); experiment: Peptide-ELISA, NMC-P3 peptide; format: binding; settings: 5 μg/ml peptide dried on plate; OD 450 nm
Procedure: Peptide-ELISA Methodology: 5 μg/ml of NMC-P1, NMC-P2 or NMC-P3 peptide antigen was dried onto a 96-well ELISA plate overnight. Plates were then blocked with 5% BSA in 1× phosphate-buffered saline (PBS) (100 ? /well) for 2 hours at room temperature. Microplate wells were then washed 5 times with 300 ? of ice cold 1× PBS. Appropriate dilutions of monoclonal antibodies NMC-103, NMC-204 or NMC-303 in 1% bovine serum albumin (BSA) in PBS solution were then incubated with their corresponding peptides (NMC-P1, NMC-P2 or NMC-P3, respectively) at room temperature. After 2 hours, wells were washed 5 times with 300 ? ? ice-cold PBS/well and 100 ? secondary antibody (HRP-labeled Goat anti-Mouse F(ab′)2 H&L cross-adsorbed secondary antibody (HRP-GaM F(ab′)2), ThermoFisher, Cat. No. A24524) diluted 1:2500 to 1:5000 in PBS-1% BSA solution were added and the incubation continued at room temperature. After 1 hour, the wells were washed again 5 times with 200 ? of ice-cold PBS and 50 μiL of the TMB Substrate Solution (1-StepTM Ultra TMB-ELISA, ThermoFisher, Cat. No. 34028) were added to each well and color was allowed to develop for 30 minutes at room temperature. The reaction was stopped by addition of 50 μ ? ? of stop solution (ThermoFisher, Cat. No. SSO4) to each well and absorbance of each well was read immediately for optical density (OD) at 450 nm.

[5] = target: T1, recombinant full-length HDM2 protein (GST tagged) (Homo sapiens, UniProt Q00987); experiment: Western blot (immunoblot); format: binding; settings: 1 μg/well protein; band at approximately 83 kD; FIG. 2
T1 construct: reacted with the recombinant full-length HDM2 protein; purchased Abcam ab188727
Procedure: Western Blot: As for immunoblots, 1 μg/well of recombinant FIDM2 protein (GST tagged, Abeam, Cat. No. ab188727) was separated on 8-16% sodium dodecyl sulfate (SDS) polyacrylamide gel and proteins were then transferred to polyvinylidene difluoride (PVDF) membrane. The membrane was blocked with 5% milk followed by incubation with monoclonal antibody NMC-103, NMC-204 or NMC-303 at 1 μg/πι ? in 1% milk in PBS for 2 hours. The membrane was then washed×3 times (10 minutes each) and incubated for 1 hour with corresponding HRP-conjugated secondary antibody (Goat anti-Mouse IgG (H&L), F(ab′)2 Frag Cross-adsorbed HRP (HRP-GaM F(ab′)2), ThermoFisher, Cat. No. A24524) diluted 1:5000 in 1% BSA-PBS. The membrane was then washed×3 times and incubated with Pierce ECL Plus Western Blotting Substrate (ThermoFisher, Cat. No. #32132) for 10 min before developing on a LICOR Scanner.

[6] = tested on: human breast cancer MCF-7 cells; experiment: Cell-ELISA, intact cells; format: binding; settings: mAb 1 μg/mL, FIGS. 3-5
Procedure: as §1

[7] = tested on: normal human peripheral blood mononuclear cells (PBMCs); experiment: Cell-ELISA, intact normal cells; format: binding; settings: freshly isolated PBMCs; FIG. 6
Procedure: as §1

[8] = tested on: CT-26 (subcutaneous tumors); experiment: CT-26 syngeneic mouse model of colon cancer; format: in vivo, mouse (BALB/c); settings: day 24 post tumor inoculation; 10 mg/kg two times a week for 3 weeks; n=4; FIG. 32A
Procedure: Utilizing another syngeneic mouse model of colon cancer, CT-26 (Selby et al., 2016, PLoS One. 9; 11(9): e0161779), the anti-tumor efficacy of a chimeric version of monoclonal antibody NMC-303 was assessed. To create the chimeric version of monoclonal antibody NMC-303, isotype class-switching was performed on a mouse NMC-303 (having heavy variable regions of SEQ ID NO:40 and light chain variable regions of SEQ ID NO:41) to convert it from a mouse IgM to a chimeric IgG1. The mouse Heavy and Light chain variable regions (SEQ ID NO:40 and SEQ ID NO:41, respectively) were cloned into a human Ig gamma-1 chain and human Ig kappa chain as constant region. A total of eight (8) BALB/c mice were injected subcutaneously with CT-26 (800,000 cells/mouse). Mice were then divided into two groups (n=4) that received: A) control antibody (10 mg/kg) or B) the chimeric version of monoclonal antibody NMC-303 (10 mg/kg) two times a week for 3 weeks. […] Due to the human constant region of the chimeric version of the monoclonal antibody NMC-303, the anti-tumor efficacy of this antibody might be improved if tested in mouse models with human immune background. The above in vivo results further support the anti-tumor efficacy of antibodies raised against NMC-P3 immunogen that target the extracellularly accessible epitopes of the M(H)DM2/4 on cancer cells.

T1 sequence (Q00987 whole entry): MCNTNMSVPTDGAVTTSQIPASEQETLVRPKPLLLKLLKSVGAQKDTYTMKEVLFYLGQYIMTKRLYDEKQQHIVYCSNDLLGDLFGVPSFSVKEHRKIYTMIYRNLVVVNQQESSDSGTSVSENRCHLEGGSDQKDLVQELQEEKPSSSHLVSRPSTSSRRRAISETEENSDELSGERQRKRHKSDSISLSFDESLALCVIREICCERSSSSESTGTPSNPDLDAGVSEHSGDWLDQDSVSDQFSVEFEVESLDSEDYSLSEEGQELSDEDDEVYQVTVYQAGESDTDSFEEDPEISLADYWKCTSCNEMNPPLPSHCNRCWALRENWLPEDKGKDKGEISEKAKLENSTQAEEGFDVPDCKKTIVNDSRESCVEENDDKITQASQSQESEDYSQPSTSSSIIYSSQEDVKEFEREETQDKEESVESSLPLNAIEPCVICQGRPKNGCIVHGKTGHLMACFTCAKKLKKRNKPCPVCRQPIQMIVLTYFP

In the case of `CC(=O)O[C@H]1C(=O)[C@@]2(C)[C@H]([C@H](OC(=O)c3ccccc3)[C@]3(O)C[C@H](OC(=O)[C@H](O)[C@@H](NC(=O)c4ccccc4)c4ccccc4)C(C)=C1C3(C)C)[C@]1(OC(C)=O)CO[C@@H]1C[C@@H]2O` [Paclitaxel], the “plasma membrane M(H)DM2/4 of treated cells” value [1] is reported as “increase”.

With `Nc1ccn([C@@H]2O[C@H](CO)[C@@H](O)C2(F)F)c(=O)n1` [Gemcitabine] the “plasma membrane M(H)DM2/4 of treated cells” value [1] was “increase”.

In the case of Cytochrome C [reference compound], the “binding to intact, EDTA-released MiaPaCa-2 cells, cell-ELISA” value ([2]; EDTA 10 mmols, pH 7.2, 5 min, 37° C., FIG. 10) is listed as “only minimal binding” and the “Species Reactivity” value [3] is listed as “H”.

B1: NMC-303: mouse monoclonal antibody, IgM isotype, binds NMC-P3 (SEQ ID NO:3); VH SEQ ID NO:40, VL SEQ ID NO:41 (antibody, V domains shown)
VH: QVQLQQPGAELVKPGASVKLSCKASGYTFTSYYMYWVKQRPGQGLEWIGGINPRNGGTNFNEKFKNKATLTADKSSTTAYMQLSSLTSEDSAVYYCTRSGYYAMDYWGQGTSVTVSS
VL: DIQMTQTTSSLSASLGDRVTISCRASQDISNFLNWYQQKPDGTVKLLIYYTSRLHSGVPSRFSGSGSGTDYSLTISNLEQEDIATYFCQQGNTLPRTFGGGTKLEIK
modifications: mAb NMC-303 Heavy Chain Variable Region; mAb NMC-303 Light Chain Variable Region
In the case of B1, the “binding to NMC-P3 peptide (peptide-ELISA)” value [4] is reported as “bound”, the “reactivity with recombinant full-length HDM2-GST protein in immunoblot” value [5] is reported as “reacted” and the “relative binding (reactivity) to intact cells, cell-ELISA” value [6] is reported as “reactivity”. The “binding to intact MIA PaCa-2 cells when competed with NMC-P3 peptide” value ([2]; FIG. 8C) was “competed”, the “relative binding (reactivity) to intact cells, cell-ELISA” value ([2]; MIA PaCa-2, mAb 1 μg/mL, FIGS. 3-5) was “reactivity” and the “binding to intact normal human PBMCs, cell-ELISA” value [7] was “virtually no binding”.

B2: chimeric version of monoclonal antibody NMC-303: chimeric IgG1: mouse NMC-303 variable regions cloned into human Ig gamma-1 chain and human Ig kappa chain constant regions (antibody, V domains shown)
VH: QVQLQQPGAELVKPGASVKLSCKASGYTFTSYYMYWVKQRPGQGLEWIGGINPRNGGTNFNEKFKNKATLTADKSSTTAYMQLSSLTSEDSAVYYCTRSGYYAMDYWGQGTSVTVSS
VL: DIQMTQTTSSLSASLGDRVTISCRASQDISNFLNWYQQKPDGTVKLLIYYTSRLHSGVPSRFSGSGSGTDYSLTISNLEQEDIATYFCQQGNTLPRTFGGGTKLEIK
modifications: human IgG1 and kappa constant regions lack entries; mAb NMC-303 Heavy Chain Variable Region; mAb NMC-303 Light Chain Variable Region
notes: chimeric IgG1: mouse NMC-303 variable regions cloned into human Ig gamma-1 chain and human Ig kappa chain constant regions
B2 showed an average tumor size [8] of 726 mm^3.
